± gives the standard deviation of the averaged measurements.
Legend:
Saccharomyces cerevisiae [1] = experiment: protein stability index of tFT-peptide fusion (C-terminal peptide) (PSI (0-1 scale)); higher = more stable (slower turnover)
Protocol: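 MPS profiling in S. cerevisiae of the tFT-X12 degron library: putative degron peptides plus stable controls, 12 aa, fused to the C-terminus of a sfGFP-mCherry timer. Cells are FACS-sorted into 8 mCherry/sfGFP bins and deep-sequenced. PSI runs from 0 (unstable) to 1 (stable). Backgrounds are wild type, das1Δ and doa10Δ at 30 °C, and wild type, das1Δ, cdc34-1 and cdc53-1 at 37 °C; 2-3 technical replicates each.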

Saccharomyces cerevisiae [2] = experiment: as above; conditions: genetic background: wild type; temperature: 30 C
[3] = genetic background: cdc34-1, temperature: 37 C
[4] = genetic background: cdc53-1, temperature: 37 C
[5] = genetic background: das1 deletion, temperature: 30 C
[6] = genetic background: das1 deletion, temperature: 37 C
[7] = genetic background: doa10 deletion, temperature: 30 C
[8] = genetic background: wild type, temperature: 30 C
[9] = genetic background: wild type, temperature: 37 C
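Note: PSI is a weighted mean of sequencing reads over stability bins, variants kept only with over 10 reads, mCherry proximal and sfGFP distal, peptide attached via GGGS linker.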

Sequence | protein stability index (Saccharomyces cerevisiae [1]; [3]) | protein stability index (Saccharomyces cerevisiae [1]; [4]) | protein stability index (Saccharomyces cerevisiae [1]; [5]) | protein stability index (Saccharomyces cerevisiae [1]; [6]) | protein stability index (Saccharomyces cerevisiae [1]; [7]) | protein stability index (Saccharomyces cerevisiae [1]; [8]) | protein stability index (Saccharomyces cerevisiae [1]; [9]) | protein stability index (Saccharomyces cerevisiae [2])
HSRALLPYLSYH | 0.684 ± 0.04 | 0.753 ± 0.016 | 0.651 ± 0.021 | 0.7732 ± 0.007 | 0.408 ± 0.013 | 0.388 ± 0.021 | 0.558 ± 0.012 | 0.518 ± 0.029
HTYSFRLLFIFL | 0.378 ± 0.031 | 0.456 ± 0.016 | 0.328 ± 0.035 | 0.4762 ± 0.0044 | 0.381 ± 0.013 | 0.321 ± 0.022 | 0.45677 ± 0.00022 | 0.388 ± 0.05
HVPPVFQASLSP | 0.675 ± 0.072 | 0.7368 ± 0.0055 | 0.662 ± 0.014 | 0.743 ± 0.015 | 0.662 ± 0.011 | 0.667 ± 0.017 | 0.7131 ± 0.0057 | 0.747 ± 0.037
ICFFQGVVVLFR | 0.353 ± 0.033 | 0.403 ± 0.005 | 0.312 ± 0.026 | 0.48 ± 0.014 | 0.3653 ± 0.0027 | 0.303 ± 0.044 | 0.4521 ± 0.0013 | 0.407 ± 0.0077
IFFVLVFFPGFF | 0.483 ± 0.036 | 0.541 ± 0.022 | 0.366 ± 0.035 | 0.548 ± 0.014 | 0.359 ± 0.023 | 0.374 ± 0.0071 | 0.506 ± 0.012 | 0.443 ± 0.06
IFHWLYLLIALI | 0.459 ± 0.025 | 0.497 ± 0.015 | 0.436 ± 0.027 | 0.524 ± 0.0054 | 0.2701 ± 0.0025 | 0.254 ± 0.029 | 0.312 ± 0.014 | 0.309 ± 0.014
IFLKFGLLRSLL | 0.9386 ± 0.006 | 0.8936 ± 0.0072 | 0.744 ± 0.012 | 0.85 ± 0.031 | 0.6161 ± 0.0027 | 0.628 ± 0.046 | 0.792 ± 0.053 | 0.488 ± 0.026
IGMVSELLLFYP | 0.721 ± 0.047 | 0.7374 ± 0.0073 | 0.671 ± 0.022 | 0.7676 ± 0.0068 | 0.63 ± 0.0085 | 0.667 ± 0.045 | 0.73 ± 0.008 | 0.72 ± 0.017
IGSFYVLSFICQ | 0.593 ± 0.043 | 0.61 ± 0.018 | 0.454 ± 0.021 | 0.626 ± 0.019 | 0.438 ± 0.024 | 0.458 ± 0.043 | 0.592 ± 0.014 | 0.475 ± 0.02
IHTFSVVVVVAA | 0.0536 ± 0.037 | 0.0437 ± 0.026 | 0.128 ± 0.029 | 0.135 ± 0.0088 | 0.0749 ± 0.0091 | 0.114 ± 0.031 | 0.128 ± 0.03 | 0.163 ± 0.022
IIFACFYGVFLM | 0.0485 ± 0.025 | 0.0619 ± 0.03 | 0.141 ± 0.019 | 0.169 ± 0.024 | 0.282 ± 0.052 | 0.0949 ± 0.036 | 0.109 ± 0.0083 | 0.187 ± 0.0052
ILDRRPRTFALV | 0.572 ± 0.017 | 0.644 ± 0.018 | 0.633 ± 0.02 | 0.692 ± 0.013 | 0.0946 ± 0.015 | 0.113 ± 0.011 | 0.149 ± 0.008 | 0.186 ± 0.0083
IMGGLRHRIEVY | 0.366 ± 0.038 | 0.403 ± 0.048 | 0.273 ± 0.028 | 0.477 ± 0.012 | 0.23 ± 0.0031 | 0.268 ± 0.034 | 0.437 ± 0.0067 | 0.352 ± 0.016
IRSLRPFLLPLF | 0.645 ± 0.016 | 0.731 ± 0.018 | 0.643 ± 0.022 | 0.7184 ± 0.0066 | 0.283 ± 0.004 | 0.306 ± 0.03 | 0.543 ± 0.0084 | 0.4088 ± 0.004
IRVFSFLLFGCF | 0.465 ± 0.027 | 0.503 ± 0.007 | 0.373 ± 0.033 | 0.546 ± 0.03 | 0.358 ± 0.012 | 0.364 ± 0.027 | 0.488 ± 0.02 | 0.44 ± 0.056
ISFQFFVCLCAR | 0.13 ± 0.0054 | 0.181 ± 0.0063 | 0.159 ± 0.022 | 0.289 ± 0.0036 | 0.145 ± 0.005 | 0.161 ± 0.018 | 0.253 ± 0.0092 | 0.234 ± 0.019
ISHLQCFFVVML | 0.439 ± 0.029 | 0.507 ± 0.025 | 0.355 ± 0.026 | 0.563 ± 0.016 | 0.3759 ± 0.0013 | 0.346 ± 0.034 | 0.485 ± 0.0089 | 0.489 ± 0.042
ISLSSLYVVMYV | 0.413 ± 0.0072 | 0.418 ± 0.041 | 0.227 ± 0.026 | 0.428 ± 0.011 | 0.178 ± 0.0094 | 0.195 ± 0.027 | 0.3919 ± 0.0016 | 0.291 ± 0.024
IVFFVLFRFWRF | 0.354 ± 0.019 | 0.3827 ± 0.0031 | 0.326 ± 0.038 | 0.46 ± 0.025 | 0.318 ± 0.02 | 0.294 ± 0.017 | 0.442 ± 0.013 | 0.32 ± 0.047
IVRLGRWLGLSC | 0.657 ± 0.032 | 0.691 ± 0.025 | 0.613 ± 0.055 | 0.709 ± 0.013 | 0.215 ± 0.031 | 0.261 ± 0.028 | 0.494 ± 0.028 | 0.352 ± 0.052

Sequence | protein stability index (Saccharomyces cerevisiae [1]; [3]) | protein stability index (Saccharomyces cerevisiae [1]; [4]) | protein stability index (Saccharomyces cerevisiae [1]; [5]) | protein stability index (Saccharomyces cerevisiae [1]; [6]) | protein stability index (Saccharomyces cerevisiae [1]; [7]) | protein stability index (Saccharomyces cerevisiae [1]; [8]) | protein stability index (Saccharomyces cerevisiae [1]; [9]) | protein stability index (Saccharomyces cerevisiae [2])
IYEAFLVFCLCG | 0.426 ± 0.016 | 0.454 ± 0.011 | 0.326 ± 0.028 | 0.543 ± 0.014 | 0.284 ± 0.016 | 0.287 ± 0.015 | 0.4385 ± 0.0019 | 0.365 ± 0.021
KKKEIIKIIKIN | 0.311 ± 0.033 | 0.643 ± 0.044 | 0.697 ± 0.065 | 0.72 ± 0.048 | 0.0624 ± 0.022 | 0.0729 ± 0.034 | 0.0954 ± 0.039 | 0.127 ± 0.013
KKKKKKKIKIMS | 0.583 ± 0.0096 | 0.706 ± 0.019 | 0.636 ± 0.024 | 0.689 ± 0.018 | 0.176 ± 0.03 | 0.232 ± 0.051 | 0.293 ± 0.032 | 0.266 ± 0.048
KKKNIYKVMKLE | 0.65 ± 0.011 | 0.706 ± 0.011 | 0.646 ± 0.035 | 0.72636 ± 0.00051 | 0.146 ± 0.043 | 0.19 ± 0.041 | 0.307 ± 0.025 | 0.403 ± 0.055
KLCVGLVLSFVC | 0.47 ± 0.021 | 0.503 ± 0.043 | 0.341 ± 0.028 | 0.5351 ± 0.0032 | 0.176 ± 0.0034 | 0.206 ± 0.023 | 0.3964 ± 0.0008 | 0.257 ± 0.053
KWGRFQQVMVIN | 0.558 ± 0.037 | 0.664 ± 0.014 | 0.5 ± 0.029 | 0.641 ± 0.0096 | 0.136 ± 0.0045 | 0.156 ± 0.022 | 0.34 ± 0.025 | 0.266 ± 0.0042
KYQVIILQTRKI | 0.578 ± 0.014 | 0.754 ± 0.0091 | 0.634 ± 0.063 | 0.765 ± 0.032 | 0.201 ± 0.064 | 0.252 ± 0.053 | 0.491 ± 0.02 | 0.398 ± 0.0041
LACGIDGYYWRH | 0.703 ± 0.048 | 0.7448 ± 0.0019 | 0.667 ± 0.015 | 0.73851 ± 0.00042 | 0.6631 ± 0.0021 | 0.682 ± 0.028 | 0.709 ± 0.017 | 0.792 ± 0.027
LAFMYFVCPRLA | 0.598 ± 0.045 | 0.645 ± 0.0077 | 0.56 ± 0.02 | 0.6511 ± 0.0057 | 0.245 ± 0.0083 | 0.269 ± 0.031 | 0.464 ± 0.022 | 0.369 ± 0.0057
LAVVLVWVPGRW | 0.443 ± 0.037 | 0.526 ± 0.057 | 0.335 ± 0.032 | 0.563 ± 0.019 | 0.311 ± 0.0059 | 0.347 ± 0.023 | 0.561 ± 0.05 | 0.418 ± 0.026
LCFFLAFSFVFF | 0.253 ± 0.017 | 0.324 ± 0.011 | 0.231 ± 0.025 | 0.382 ± 0.026 | 0.289 ± 0.00096 | 0.236 ± 0.022 | 0.3374 ± 0.0016 | 0.296 ± 0.0099
LCFGMVELMWIY | 0.418 ± 0.057 | 0.52 ± 0.071 | 0.388 ± 0.046 | 0.521 ± 0.011 | 0.371 ± 0.047 | 0.377 ± 0.037 | 0.471 ± 0.018 | 0.458 ± 0.0053
LCFRLVSYLCIN | 0.497 ± 0.054 | 0.694 ± 0.013 | 0.591 ± 0.048 | 0.6781 ± 0.0015 | 0.223 ± 0.0073 | 0.221 ± 0.011 | 0.37 ± 0.013 | 0.39 ± 0.0077
LCGIFTFRLSLL | 0.693 ± 0.06 | 0.7815 ± 0.0027 | 0.668 ± 0.028 | 0.706 ± 0.014 | 0.245 ± 0.026 | 0.273 ± 0.024 | 0.437 ± 0.005 | 0.388 ± 0.051
LCIYNFGWWFCV | 0.494 ± 0.011 | 0.637 ± 0.044 | 0.561 ± 0.036 | 0.6389 ± 0.0054 | 0.121 ± 0.015 | 0.134 ± 0.0087 | 0.128 ± 0.014 | 0.183 ± 0.056
LCLLCWIPCSFR | 0.629 ± 0.017 | 0.62751 ± 0.00045 | 0.451 ± 0.029 | 0.649 ± 0.0077 | 0.486 ± 0.035 | 0.4661 ± 0.0017 | 0.616 ± 0.0074 | 0.524 ± 0.048
LCLLFLSFFFVC | 0.464 ± 0.0083 | 0.515 ± 0.014 | 0.374 ± 0.037 | 0.555 ± 0.086 | 0.229 ± 0.015 | 0.234 ± 0.027 | 0.361 ± 0.0065 | 0.307 ± 0.0056
LCVVVICCLMAR | 0.097 ± 0.025 | 0.198 ± 0.055 | 0.123 ± 0.036 | 0.265 ± 0.0071 | 0.0806 ± 0.015 | 0.125 ± 0.026 | 0.216 ± 0.012 | 0.279 ± 0.05
LDLSSVFILYFN | 0.599 ± 0.041 | 0.6735 ± 0.0021 | 0.518 ± 0.0058 | 0.709 ± 0.048 | 0.2653 ± 0.0025 | 0.28 ± 0.028 | 0.54398 ± 0.00036 | 0.374 ± 0.022

Reference: the supplement of paper PMC10724198
